Measured values reported in article doi:10.1101/2020.07.21.215244 (bioRxiv, 2020).

T1: AscA (YecA), unfused full-length (E. coli, UniProt P0AD05 1-221)
T1 sequence (looked up): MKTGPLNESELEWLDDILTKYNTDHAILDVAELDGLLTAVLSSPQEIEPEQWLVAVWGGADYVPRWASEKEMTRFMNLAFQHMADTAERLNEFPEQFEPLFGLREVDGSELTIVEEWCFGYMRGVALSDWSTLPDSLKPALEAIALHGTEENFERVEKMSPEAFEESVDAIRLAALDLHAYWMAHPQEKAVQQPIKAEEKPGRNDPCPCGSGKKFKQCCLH


How the values were obtained:
[1] = target: vacant (non-translating) 70S ribosomes; assay: co-sedimentation
[2] = target: T1, AscA (YecA), unfused full-length; assay: MST

Row | Binder | stoichiometry N [1] | Kd [2]
1 | AscA (YecA), unfused full-length (natural protein) MKTGPLNESELEWLDDILTKYNTDHAILDVAELDGLLTAVLSSPQEIEPEQWLVAVWGGADYVPRWASEKEMTRFMNLAFQHMADTAERLNEFPEQFEPLFGLREVDGSELTIVEEWCFGYMRGVALSDWSTLPDSLKPALEAIALHGTEENFERVEKMSPEAFEESVDAIRLAALDLHAYWMAHPQEKAVQQPIKAEEKPGRNDPCPCGSGKKFKQCCLH | 1 | –
2 | SecB, fluorescently labelled (NT-647) (natural protein, E. coli, UniProt P0AG86 1-155, looked up, randomly labelled with NT-647 (NT-647-NHS labelling kit)) MSEQNNTEMTFQIQRIYTKDISFEAPNAPHVFQKDWQPEVKLDLDTASSQLADDVYEVVLRVTVTASLGEETAFLCEVQQGGIFSIAGIEGTQMAHCLGAYCPNILFPYARECITSMVSRGTFPQLNLAPVNFDALFMNYLQQQAGEGTEEHQDA | – | ~150 nM
